Reference: US20030215451A1 (Genentech, published 2003)

How the values were obtained:
integrin αvβ3 = integrin αvβ3 (UniProt P06756 31-1048; P05106 27-788); assay: cell-based or functional assay
[1] = molecular target: T1, Tie2 receptor (full length receptor construct) (UniProt Q02763 23-1124, limits assumed); assay: co-immunoprecipitation from co-transfected 293 cells: anti-Tie2 IP, anti-gD immunoblot
T1 construct: whole, on cells; Full length receptor expressed in 293 cells and assayed from RIPA lysate, not on intact cells
T1 sequence (Q02763 23-1124 limits assumed): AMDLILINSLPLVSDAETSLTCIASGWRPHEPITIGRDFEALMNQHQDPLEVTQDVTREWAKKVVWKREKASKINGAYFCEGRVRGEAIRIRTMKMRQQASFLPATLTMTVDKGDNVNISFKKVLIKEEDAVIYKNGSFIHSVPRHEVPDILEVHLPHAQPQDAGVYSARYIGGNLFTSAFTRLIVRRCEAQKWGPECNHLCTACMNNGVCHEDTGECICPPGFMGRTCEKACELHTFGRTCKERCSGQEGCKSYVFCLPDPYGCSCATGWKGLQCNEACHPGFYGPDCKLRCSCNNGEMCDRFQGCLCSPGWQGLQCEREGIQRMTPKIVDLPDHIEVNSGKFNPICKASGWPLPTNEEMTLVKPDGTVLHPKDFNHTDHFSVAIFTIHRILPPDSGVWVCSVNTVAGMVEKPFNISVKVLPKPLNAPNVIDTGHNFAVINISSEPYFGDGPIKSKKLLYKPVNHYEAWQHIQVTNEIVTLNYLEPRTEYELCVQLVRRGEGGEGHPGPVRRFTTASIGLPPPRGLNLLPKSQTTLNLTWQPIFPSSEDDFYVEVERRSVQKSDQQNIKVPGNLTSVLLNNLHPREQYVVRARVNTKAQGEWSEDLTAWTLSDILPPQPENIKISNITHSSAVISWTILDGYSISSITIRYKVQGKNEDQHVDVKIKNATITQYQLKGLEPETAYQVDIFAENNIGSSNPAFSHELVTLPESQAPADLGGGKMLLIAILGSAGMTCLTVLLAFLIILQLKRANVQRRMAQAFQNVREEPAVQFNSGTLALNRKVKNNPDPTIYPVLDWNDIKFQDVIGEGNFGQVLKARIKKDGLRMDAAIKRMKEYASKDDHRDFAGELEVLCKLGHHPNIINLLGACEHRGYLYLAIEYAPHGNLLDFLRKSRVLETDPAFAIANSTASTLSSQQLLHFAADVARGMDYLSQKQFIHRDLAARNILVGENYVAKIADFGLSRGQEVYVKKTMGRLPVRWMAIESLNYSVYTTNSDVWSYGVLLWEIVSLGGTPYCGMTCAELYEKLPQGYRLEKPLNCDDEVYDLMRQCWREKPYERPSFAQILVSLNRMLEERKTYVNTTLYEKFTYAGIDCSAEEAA

[2] = molecular target: T2, Tie1 receptor (full length receptor construct) (UniProt P35590 22-1138, limits assumed); assay: co-immunoprecipitation from co-transfected 293 cells: anti-Tie1 IP, anti-gD immunoblot
T2 construct: whole, on cells; Full length receptor expressed in 293 cells and assayed from RIPA lysate, not on intact cells
T2 sequence (P35590 22-1138 limits assumed): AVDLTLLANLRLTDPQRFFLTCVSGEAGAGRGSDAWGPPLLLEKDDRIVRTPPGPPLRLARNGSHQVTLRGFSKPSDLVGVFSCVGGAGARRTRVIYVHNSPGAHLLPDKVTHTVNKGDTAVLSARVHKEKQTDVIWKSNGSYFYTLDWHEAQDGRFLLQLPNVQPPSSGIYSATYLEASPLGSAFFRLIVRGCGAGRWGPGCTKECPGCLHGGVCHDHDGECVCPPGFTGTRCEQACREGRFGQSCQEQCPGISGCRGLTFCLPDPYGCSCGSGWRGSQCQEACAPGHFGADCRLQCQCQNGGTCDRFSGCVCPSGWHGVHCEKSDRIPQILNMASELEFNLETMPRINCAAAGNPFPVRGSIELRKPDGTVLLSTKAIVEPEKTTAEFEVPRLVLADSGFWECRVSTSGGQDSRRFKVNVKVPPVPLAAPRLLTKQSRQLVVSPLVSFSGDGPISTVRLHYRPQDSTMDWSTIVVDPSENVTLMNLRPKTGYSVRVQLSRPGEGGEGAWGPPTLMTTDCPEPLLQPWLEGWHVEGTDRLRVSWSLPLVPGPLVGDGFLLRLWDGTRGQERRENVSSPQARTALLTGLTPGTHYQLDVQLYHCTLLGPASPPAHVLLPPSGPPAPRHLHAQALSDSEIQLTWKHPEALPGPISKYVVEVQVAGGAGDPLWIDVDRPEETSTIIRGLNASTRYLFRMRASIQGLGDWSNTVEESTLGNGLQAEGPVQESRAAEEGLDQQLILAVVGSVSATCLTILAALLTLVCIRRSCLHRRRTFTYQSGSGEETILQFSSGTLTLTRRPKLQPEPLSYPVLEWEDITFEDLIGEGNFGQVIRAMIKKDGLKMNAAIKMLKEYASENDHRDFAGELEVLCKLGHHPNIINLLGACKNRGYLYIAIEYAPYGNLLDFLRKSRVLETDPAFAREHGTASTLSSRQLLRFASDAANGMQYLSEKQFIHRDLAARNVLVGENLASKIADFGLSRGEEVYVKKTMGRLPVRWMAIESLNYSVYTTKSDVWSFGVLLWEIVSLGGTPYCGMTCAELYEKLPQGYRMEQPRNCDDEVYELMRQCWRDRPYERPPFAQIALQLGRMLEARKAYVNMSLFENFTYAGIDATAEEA

Sequence of integrin αvβ3 (P06756 31-1048, chain 1 of 2): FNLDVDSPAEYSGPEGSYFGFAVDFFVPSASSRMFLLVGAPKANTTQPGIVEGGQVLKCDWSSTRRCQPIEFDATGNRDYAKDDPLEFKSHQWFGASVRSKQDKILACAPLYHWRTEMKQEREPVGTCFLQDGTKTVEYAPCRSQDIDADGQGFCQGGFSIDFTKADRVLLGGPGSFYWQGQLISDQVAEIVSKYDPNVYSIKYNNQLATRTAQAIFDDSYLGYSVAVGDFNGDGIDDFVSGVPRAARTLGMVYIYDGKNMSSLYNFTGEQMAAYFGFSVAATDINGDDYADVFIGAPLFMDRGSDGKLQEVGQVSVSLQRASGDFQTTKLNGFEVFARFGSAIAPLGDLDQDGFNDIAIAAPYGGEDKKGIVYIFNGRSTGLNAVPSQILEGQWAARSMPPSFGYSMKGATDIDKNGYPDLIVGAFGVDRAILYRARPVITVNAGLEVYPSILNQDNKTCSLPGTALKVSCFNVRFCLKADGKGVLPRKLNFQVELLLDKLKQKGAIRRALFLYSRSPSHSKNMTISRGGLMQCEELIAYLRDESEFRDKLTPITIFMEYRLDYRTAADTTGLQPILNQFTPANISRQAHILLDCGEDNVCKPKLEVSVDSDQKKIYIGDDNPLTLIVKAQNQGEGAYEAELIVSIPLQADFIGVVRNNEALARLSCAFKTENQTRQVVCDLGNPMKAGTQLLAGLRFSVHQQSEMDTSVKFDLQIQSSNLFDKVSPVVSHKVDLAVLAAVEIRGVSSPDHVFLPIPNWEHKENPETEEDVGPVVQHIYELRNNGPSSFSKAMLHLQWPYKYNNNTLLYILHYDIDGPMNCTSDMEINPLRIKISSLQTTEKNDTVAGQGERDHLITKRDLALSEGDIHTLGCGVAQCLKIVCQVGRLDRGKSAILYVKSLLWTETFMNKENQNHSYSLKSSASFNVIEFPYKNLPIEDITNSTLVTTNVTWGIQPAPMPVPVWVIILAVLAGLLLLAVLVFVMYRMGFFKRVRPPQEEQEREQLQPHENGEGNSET
Sequence of integrin αvβ3 (P05106 27-788, chain 2 of 2): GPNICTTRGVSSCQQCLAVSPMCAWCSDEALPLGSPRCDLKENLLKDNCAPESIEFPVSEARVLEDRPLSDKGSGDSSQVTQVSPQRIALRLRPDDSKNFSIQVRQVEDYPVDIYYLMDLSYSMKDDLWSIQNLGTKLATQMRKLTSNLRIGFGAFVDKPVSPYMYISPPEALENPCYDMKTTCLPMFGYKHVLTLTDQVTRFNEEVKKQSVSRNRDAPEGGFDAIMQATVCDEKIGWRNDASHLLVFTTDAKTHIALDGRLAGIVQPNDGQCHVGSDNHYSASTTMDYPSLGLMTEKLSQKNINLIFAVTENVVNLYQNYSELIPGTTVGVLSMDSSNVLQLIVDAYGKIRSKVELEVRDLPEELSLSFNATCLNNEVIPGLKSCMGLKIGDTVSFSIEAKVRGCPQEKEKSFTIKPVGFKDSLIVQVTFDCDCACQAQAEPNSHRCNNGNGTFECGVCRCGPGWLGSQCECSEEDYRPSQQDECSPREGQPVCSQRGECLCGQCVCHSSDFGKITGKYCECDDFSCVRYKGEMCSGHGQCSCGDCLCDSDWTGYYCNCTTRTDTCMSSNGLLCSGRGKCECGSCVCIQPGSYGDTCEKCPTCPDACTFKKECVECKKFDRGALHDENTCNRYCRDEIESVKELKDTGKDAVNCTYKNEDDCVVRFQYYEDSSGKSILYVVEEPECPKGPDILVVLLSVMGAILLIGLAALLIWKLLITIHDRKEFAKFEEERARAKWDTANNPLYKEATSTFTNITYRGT

B1: recombinant human Angptl3 tagged with an amino-terminal gD epitope (ligand, not shown: small tags and cut ends)
chain: SRIDQDNSSFDSLSPEPKSRFAMLDDVKILANGLLQLGHGLKDFVHKTKGQINDIFQKLNIFDQSFYDLSLQTSEIKEEEKELRRTTYKLQVKNEEVKNMSLELNSKLESLLEEKILLQQKVKYLEEQLTNLIQNQPETPEHPEVTSLKTFVEKQDNSIKDLLQTVEDQYKQLNQQHSQIKEIENQLRRTSIQEPTEISLSSKPRAPRTTPFLQLNEIRNVKHDGIPAECTTIYNRGEHTSGMYAIRPSNSQVFHVYCDVISGSPWTLIQHRIDGSQNFNETWENYKYGFGRLDGEFWLGLEKIYSIVKQSNYVLRIELEDWKDNKHYIEYSFYLGNHETNYTLHLVAITGNVPNAIPENKDLVFSTWDHKAKGHFNCPEGYSGGWWWHDECGENNLNGKYNKPRAKSKPERRRGLSWKSQNGRLYSIKSTKMLIHPTDSESFE
modifications: glycosylated (PNGase-F sensitive)
notes: Purified from baculovirus-infected insect cells for the adhesion and migration assays; Expressed in transiently transfected 293 cells for the co-immunoprecipitation; Both are treated here as one molecule; also called hAngptl3; gD-tagged Angptl3
Integrin αvβ3
  migration of HMVEC (cells/microscopic field): 2.5 fold
[1]
  binding result: no binding
[2]
  binding result: no binding
